# Reference: patent US20100184701A1 (TREVENA, published 2010)
# Non-standard residues stand in square brackets, D forms with d. No end group written: not given here. Sar = CNCC(=O)O
# Experiments:
# [1] = target: T1, rat angiotensin 2 type 1 receptor (rat, UniProt P25095 1-359); test: cell-based or functional assay
# T1 sequence (looked up): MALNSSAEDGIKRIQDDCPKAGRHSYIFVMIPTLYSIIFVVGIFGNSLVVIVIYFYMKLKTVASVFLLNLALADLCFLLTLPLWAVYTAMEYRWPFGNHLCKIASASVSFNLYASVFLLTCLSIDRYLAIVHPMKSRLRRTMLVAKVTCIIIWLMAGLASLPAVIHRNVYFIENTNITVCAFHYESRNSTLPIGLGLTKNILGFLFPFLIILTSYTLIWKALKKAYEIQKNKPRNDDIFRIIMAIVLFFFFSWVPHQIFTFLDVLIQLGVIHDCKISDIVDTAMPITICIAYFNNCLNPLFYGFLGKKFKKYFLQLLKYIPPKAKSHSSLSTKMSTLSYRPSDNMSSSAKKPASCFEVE
# [2] = target: T2, human angiotensin 2 type 1 receptor (human, UniProt P30556 1-359); test: cell-based or functional assay
# T2 sequence (looked up): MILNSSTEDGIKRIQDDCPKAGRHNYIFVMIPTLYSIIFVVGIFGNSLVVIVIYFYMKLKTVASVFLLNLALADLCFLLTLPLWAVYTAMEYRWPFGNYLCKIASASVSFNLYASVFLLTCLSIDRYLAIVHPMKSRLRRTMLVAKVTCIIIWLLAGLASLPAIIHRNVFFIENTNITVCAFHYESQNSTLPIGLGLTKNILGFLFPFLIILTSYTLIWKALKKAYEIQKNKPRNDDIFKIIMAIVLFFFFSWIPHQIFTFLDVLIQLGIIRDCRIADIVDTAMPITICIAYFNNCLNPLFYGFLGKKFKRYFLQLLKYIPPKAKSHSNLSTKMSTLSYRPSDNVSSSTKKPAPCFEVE
Binder,IP One EC50 (M) [1] [M],b-arrestin2 EC50 [1] [nM],b-arrestin2 Max (%) [1] [%],IP One EC50 (M) [2] [M],b-arrestin2 EC50 [2] [nM],b-arrestin2 Max (%) [2] [%],IP One Max (%) [1] [%],IP One EC50 [1] [nM],IP One EC50 [2] [nM],IP One Max (%) [2] [%]
XRVYVHP (Sar (sarcosine) at 1) [SEQ ID NO: 54],> 1e-05,17,83,> 1e-05,42,58.6,–,–,–,–
RVYIHP (C-terminal amide (NH2)) [SEQ ID NO: 13],> 1e-05,–,165,> 1e-05,–,43.4,–,–,–,–
DRVYFHP (N-Me-Asp (N-methyl-L-aspartic acid) at 1; C-terminal amide (NH2)) [SEQ ID NO: 65],> 1e-05,–,67.3,> 1e-05,–,37.8,–,–,–,–
ERVYYHP (D-Glu at 1; C-terminal amide (NH2)) [SEQ ID NO: 60],> 1e-05,180,79.3,> 1e-05,–,44,–,–,–,–
DRVYYHP (N-Me-Asp (N-methyl-L-aspartic acid) at 1; C-terminal amide (NH2)) [SEQ ID NO: 61],> 1e-05,2100,60.4,> 1e-05,1200,37.5,–,–,–,–
ERVYYHP (N-Me-Glu (N-methyl-L-glutamic acid) at 1; C-terminal amide (NH2)) [SEQ ID NO: 62],> 1e-05,–,44.2,> 1e-05,–,24.7,–,–,–,–
DRVYFHP (C-terminal amide (NH2)) [SEQ ID NO: 63],> 1e-05,–,50.1,> 1e-05,–,35.9,–,–,–,–
ERVYYHP (C-terminal amide (NH2)) [SEQ ID NO: 59],> 1e-05,–,27.8,> 1e-05,1400,19.5,–,–,–,–
DRVYYHP (D-Asp at 1; C-terminal amide (NH2)) [SEQ ID NO: 58],–,260,81.1,> 1e-05,330,48.7,9.94,–,–,–
ERVYFHP (C-terminal amide (NH2)) [SEQ ID NO: 64],> 1e-05,–,26.9,> 1e-05,1200,20.4,–,–,–,–
DRVYIHPG-OH [SEQ ID NO: 56],–,160,98.5,–,550,104,98.4,20,660,96.5
[Sar]RVY[dA]HP-NH2 (N-terminus assumed; SMILES CNCC(=O)N[C@@H](CCCNC(=N)N)C(=O)N[C@H](C(=O)N[C@@H](Cc1ccc(O)cc1)C(=O)N[C@H](C)C(=O)N[C@@H](Cc1c[nH]cn1)C(=O)N1CCC[C@H]1C(N)=O)C(C)C) [SEQ ID NO: 53],> 1e-05,420,12.2,> 1e-05,1600,33.6,–,–,–,–
[Sar]RVYVH-NH2 (N-terminus assumed; SMILES CNCC(=O)N[C@@H](CCCNC(=N)N)C(=O)N[C@H](C(=O)N[C@@H](Cc1ccc(O)cc1)C(=O)N[C@H](C(=O)N[C@@H](Cc1c[nH]cn1)C(N)=O)C(C)C)C(C)C) [SEQ ID NO: 55],–,42,95.6,–,220,92.7,98.8,6.8,96,97.6
DRVYYHP (C-terminal amide (NH2)) [SEQ ID NO: 57],–,–,64.4,–,–,42.1,35.3,–,–,10
ARVYIHPA (NM-D-Ala (N-methyl-D-alanine) at 1; D-Ala at 8) [SEQ ID NO: 82],> 1e-05,–,60.6,> 1e-05,–,38.3,–,–,–,–
ERVYFHP (N-Me-Glu (N-methyl-L-glutamic acid) at 1; C-terminal amide (NH2)) [SEQ ID NO: 66],> 1e-05,10000,58.5,> 1e-05,–,30.6,–,–,–,–
